Assay results: patent publication US20150056222A1

Target: mouse PRLR on HEK293 cells (mouse) (UniProt Q08501)
Test: FACS, HEK293/mPRLR cells

Sequence of mouse PRLR on HEK293 cells (mouse) (Q08501 20-608): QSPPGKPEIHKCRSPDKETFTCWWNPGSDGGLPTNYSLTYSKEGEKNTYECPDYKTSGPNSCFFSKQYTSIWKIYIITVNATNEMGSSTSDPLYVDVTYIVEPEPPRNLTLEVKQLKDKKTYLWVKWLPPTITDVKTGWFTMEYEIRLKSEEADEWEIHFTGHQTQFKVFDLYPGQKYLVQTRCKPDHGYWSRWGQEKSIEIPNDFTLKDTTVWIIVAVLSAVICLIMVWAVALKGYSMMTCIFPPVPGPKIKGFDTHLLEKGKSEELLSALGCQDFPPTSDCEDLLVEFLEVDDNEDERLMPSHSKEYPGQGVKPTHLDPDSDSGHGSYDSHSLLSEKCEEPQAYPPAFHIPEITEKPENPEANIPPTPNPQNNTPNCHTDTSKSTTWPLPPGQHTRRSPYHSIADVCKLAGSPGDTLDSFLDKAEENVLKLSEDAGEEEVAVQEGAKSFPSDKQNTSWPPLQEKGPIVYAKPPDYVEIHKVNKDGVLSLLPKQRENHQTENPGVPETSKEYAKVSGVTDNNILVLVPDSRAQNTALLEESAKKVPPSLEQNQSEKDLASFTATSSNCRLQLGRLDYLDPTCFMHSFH

- FACS Cell Binding (Fold Above Background) (fold above background): 56
B1: H1H6801P (antibody, human IgG1, V domains shown)
VH: QVQLQQSGPGLVKPSQTLSLTCVISGDSVSSNTAWNWVRQSPSRGLEWLGRTYYRSKWYNDYAVSVKSRITINPDTSKNQFSLLMNSVTPEDTAVYYCARVVRGLNYFDYWGQGTLVTVSS
VL: DIVMTQSPDSLAVSLGERATINCKSSQSVLYNSNNKNYLAWYQQKPGQPPKLLIYWSSSRESGVPDRFSGSGSGTDFTLTISGLQAEDVAIYYCQQYSTIPYTFGQGTKLEIK
